{"source": "patent US7470769B2", "about": "“Epidermal growth factor receptor antagonists and methods of use” (Molecular Logix, Inc., priority 2004, dated 2008)", "key": {"[1]": {"biological_target": "T1, EGFR in the form of A431 cell membrane receptor preparations (Homo sapiens, UniProt P00533)", "T1 construct": "EGFR in the form of A431 cell membrane receptor preparations; endogenous in cells; host or cells: A431 cell membranes", "assay": "EGFR kinase ELISA", "assay_type": "biochemical", "conditions": "variant alone, compared with MLX hEGF", "protocol": "(§1) To examine the kinase activity of epidermal growth factor receptor (EGFR) in the presence of hEGF and EGF variants, an ELISA was developed. Briefly, an ELISA plate is coated with poly-glu, tyr (4:1) which serves as a substrate for tyrosine phosphorylation by the EGFR. The ELISA plate is then incubated with assay buffer, which includes an ATP generating system, EGFR in the form of A431 cell membrane receptor preparations, and EGF variant. After a 15 minute incubation ATP is added to the reaction to allow the kinase activity to proceed. Anti-phosphotyrosine antibody is added to bind to the phosphorylated tyrosine bound to the plate. Anti-mouse HRP conjugate antibody is added as the detection antibody, which is visualized with the addition of tetramethyl benzidine (TMB).\nThe glycine at position 18 was replaced by glutamate (G18E), glutamine (G18Q), lysine (G18K), phenylalanine (G18F), and leucine (G18L). These variants were tested in the kinase assay described above and compared with recombinant wild-type human EGF (MLX hEGF).\nThe following variations in the glycine at position 39 were made: G39E, G39Q, G39K, and G39L."}, "[2]": {"system": "HER5 cell line (expresses the human EGF receptor)", "assay": "HER5 cell proliferation assay (WST-1)", "assay_type": "cell-based, murine", "conditions": "48 hour proliferation, serum-free, WST-1 OD 450", "description": "The HER5 cell line, a murine fibroblast line (derived from the NR-6 line) that has been stably transfected to express the human EGF receptor was provided by Dr. M. C. Hung (MD Anderson Cancer Center). Stock cultures of HER5 were propagated in D-MEM/F12 medium containing 10% fetal bovine serum, 100 units/ml of penicillin and 100 ug/ml of streptomycin in a water-jacketed incubator at 37° C. in a humidified 5% CO2 atmosphere. For HER5 proliferation assays, the cells were changed into DMEM/F12 without serum for 24 hours. Cells were then trypsinized and suspended at 1E5 cells/ml. Serial dilutions of hEGF (PeproTech, Rocky Hill, N.J.), His-tagged hEGF, test proteins were prepared in serum-free DMEM/F12 at 2-fold the final concentration and plated into the wells of 96-well plates. Fifty microliters of cell suspension (5000 cells) were added to appropriate wells bringing the total volume to 100 ul at the desired concentrations. Plates were incubated for a 48 hour proliferation period. Cell proliferation was determined by addition of 10 ul/well of WST-1 Cell Proliferation Reagent (Roche Applied Sciences, Indianapolis, Ind.) for the last three hours of the proliferation period. […] The amount of formazan was measured at 450 nm using a microplate reader (Dynex Technologies) with MRX Revelation software."}, "BALB/3T3 cells": {"system": "BALB/3T3 cells", "assay": "BALB/3T3 proliferation competition assay with hEGF", "assay_type": "cell-based, murine", "conditions": "0.5 nM and 5.0 nM hEGF, 48 hours", "protocol": "The BALB/3T3 proliferation assay was modified to test variants for competition with hEGF in the stimulation of BALB/3T3 cell proliferation. Serial dilutions of the test mutants were tested for proliferation in the presence of 0 nM, 0.5 nM, and 5 nM of the MLX-hEGF. BALB/3T3 cells were suspended at 3E4 cells/ml in complete serum media. 100 ul of cell suspension was plated per well in 96-well plates and incubated for 20-24 hours. Media was then aspirated from the wells, and the cells were washed once with DPBS. His-tagged wild-type hEGF at twice the final concentration was added in 50 ul/well. Serial dilutions of test mutants were prepared at twice the final concentration in serum-free media and 50 ul was added per well, bringing the final volume per well to 100 ml at the target concentrations of wt-hEGF and test mutants. Assay plates were incubated for 48 hours and cell proliferation was determined with WST-1 cell proliferation reagent (10 ul/well, 5 hr incubation). The absorbance at 450 nm was read with a microplate reader."}, "[3]": {"biological_target": "T1, EGFR in the form of A431 cell membrane receptor preparations", "assay": "EGFR kinase competition ELISA", "assay_type": "biochemical", "conditions": "50 nM human EGF added", "protocol": "as §1\nThe EGFR kinase competition assay is basically the same as outlined above in the description of the kinase ELISA. The difference is that in the initial incubation with the EGFR and EGF variant, 50 nM human EGF is added which competes with the EGF variant for binding to the EGFR. Both the variant EGF and the human EGF are added to the assay plate before the addition of the EGFR and assay buffer, making sure neither ligand has an advantage in binding to the EGFR."}, "[4]": {"system": "hEGF-stimulated cell proliferation", "assay": "Inhibition of hEGF-stimulated cell proliferation (FIG. 4, FIG. 5)", "assay_type": "cell-based", "conditions": "figure legends, cell line not stated"}, "EGFR": {"biological_target": "EGFR (Homo sapiens, UniProt P00533)", "assay": "EGFR dimerization (FIG. 6)"}}, "data": [{"substance": "G39E: hEGF polypeptide variant, G39 replaced by glutamate (NSDSECPLSHDGYCLHDGVCMYIEALDKYACNCVVGYIEERCQYRDLKWWELR; not fully specified; left off: small tags and cut ends)", "values": [{"measurement": "activation of the EGFR kinase", "setting": "[1]", "value": "some slight activity"}]}, {"substance": "G39K: hEGF polypeptide variant, G39 replaced by lysine (NSDSECPLSHDGYCLHDGVCMYIEALDKYACNCVVGYIKERCQYRDLKWWELR; not fully specified; left off: small tags and cut ends)", "values": [{"measurement": "activation of the EGFR kinase", "setting": "[1]", "value": "some slight activity"}, {"measurement": "potency in the HER5 proliferation assay", "setting": "[2]", "value": "least potency in that series"}, {"measurement": "competition with hEGF in stimulation of BALB/3T3 cell proliferation", "setting": "BALB/3T3 cells", "value": "Apparent competition was observed at both hEGF concentrations"}]}, {"substance": "G39L: hEGF polypeptide variant, G39 replaced by leucine (NSDSECPLSHDGYCLHDGVCMYIEALDKYACNCVVGYILERCQYRDLKWWELR; not fully specified; left off: small tags and cut ends)", "values": [{"measurement": "competition with hEGF-related stimulation of EGFR kinase", "setting": "[3]", "value": "marked interference with hEGF-related stimulation of EGFR kinase"}, {"measurement": "potency in the HER5 proliferation assay", "setting": "[2]", "value": "least potency in that series"}, {"measurement": "competition with hEGF in stimulation of BALB/3T3 cell proliferation", "setting": "BALB/3T3 cells", "value": "only seen in at 0.5 nM hEGF"}, {"measurement": "inhibition of hEGF-stimulated cell proliferation", "setting": "[4]", "value": "inhibition of hEGF-stimulated cell proliferation"}]}, {"substance": "V35EG39L: hEGF polypeptide variant, glycine 39 substituted with leucine and valine 35 with glutamic acid (NSDSECPLSHDGYCLHDGVCMYIEALDKYACNCVEGYILERCQYRDLKWWELR; not fully specified; left off: small tags and cut ends)", "values": [{"measurement": "activation of the EGFR kinase", "setting": "[1]", "value": "unable to activate the EGFR kinase"}, {"measurement": "competition with hEGF-related stimulation of EGFR kinase", "setting": "[3]", "value": "marked interference with hEGF-related stimulation of EGFR kinase"}, {"measurement": "triggering of EGFR dimerization", "setting": "EGFR", "value": "does not trigger EGFR dimerization"}, {"measurement": "inhibition of hEGF-stimulated cell proliferation", "setting": "[4]", "value": "inhibition of hEGF-stimulated cell proliferation"}]}]}
